{"source": "patent US7838294B2", "about": "“Inhibitors of the JNK signal transduction pathway and methods of use” (University of Massachusetts, priority 1997, dated 2010)", "key": {"JNK1 [1]": {"target": "T1, JNK1 (Homo sapiens, UniProt P45983)", "T1 construct": "expressed in transfected cells", "T1 sequence (P45983 1-384 isoform P45983-2)": "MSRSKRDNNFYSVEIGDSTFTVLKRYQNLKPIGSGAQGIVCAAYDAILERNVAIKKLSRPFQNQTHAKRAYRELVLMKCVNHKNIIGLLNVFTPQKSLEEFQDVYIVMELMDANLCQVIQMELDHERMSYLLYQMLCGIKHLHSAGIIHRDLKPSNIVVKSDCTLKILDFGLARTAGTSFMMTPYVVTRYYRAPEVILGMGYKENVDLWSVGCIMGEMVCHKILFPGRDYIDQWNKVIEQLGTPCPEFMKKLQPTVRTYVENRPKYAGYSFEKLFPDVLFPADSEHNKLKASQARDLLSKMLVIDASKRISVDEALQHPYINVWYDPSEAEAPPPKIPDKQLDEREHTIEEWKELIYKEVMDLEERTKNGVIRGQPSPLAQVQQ", "assay": "Co-immunoprecipitation of JIP-1 with JNK1 in transfected COS-1 cells", "format": "binding", "protocol": "To test whether JIP-1 and JNK interact in vivo, co-immunoprecipitation analysis was performed. COS-1 cells were mock-transfected or transfected with JIP-1 and JNK1 expression vectors. Constructs expressing epitope (HA) tagged JNK1 have been described previously. Dérijard et al., supra; Sluss et al., supra; Gupta et al., supra. Mammalian JIP-1 expression vectors were constructed by subcloning the JIP-1 cDNA into the XbaI and HindIII sites of pCMV5 and the HindIII and EcoRI sites of pcDNA3 (Invitrogen Inc.). DNA encoding the Flag epitope, -Asp-Tyr-Lys-Asp-Asp-Asp-Asp-Lys- (SEQ ID NO:14) (Immunex Corp.), was inserted into JIP-1 cDNA between the DNA encoding the first two codons of JIP-1 using insertional overlapping polymerase chain reaction (PCR). Ho et al., Gene, 77:51 (1989). Bacterial JIP-1 expression vectors were constructed by subcloning PCR fragments of the JIP-1 cDNA into the EcoRI and XbaI sites of pGEX-3× (Pharmacia LKB Biotechnology Inc.). GST fusion proteins were purified by affinity chromatography on GSH-agarose as described previously. Smith et al., Gene, 67:31 (1988). […]\nFor the co-immunoprecipitation experiments, transfected or mock-transfected cells were irradiated with or without UV-C (40 J/m^2) and incubated for one hour. […] Immune complexes were detected with a second antibody coupled to horseradish peroxidase and enhanced chemiluminescence (Amersham International PLC)."}, "ERK2 [2]": {"system": "ERK2", "assay": "Immune complex protein kinase assay: ERK, substrate MBP", "format": "biochemical, Chinese hamster", "settings": "in vitro, 3 μg myelin basic protein", "protocol": "(§1) To test whether JIP-1 competes with Jun and ATF2 for interaction with JNK, the effect of JIP-1 on transcription factor-mediated phosphorylation of exogenous substrates was analyzed using an in vitro protein kinase assay. In these experiments, Chinese hamster ovary (CHO) cells were serum-starved for one hour. In some experiments, the cells were treated with 10 ng/ml mouse interleukin 1 or 100 nM phorbol myristic acetate. JNK, p38, and ERK protein kinase activity was measured in an immune complex kinase assay using 3 μg of the substrates GST-Jun, GST-ATF2, and myelin basic protein (MBP), respectively. Protein kinase assays were performed using 40 μl 20 mM Hepes (pH 7.4), 20 mM MgCl2, 20 mM β-glycerophosphate, 2 mM dithiothreitol, 0.1 mM sodium orthovanadate, 50 μM [γ-^32P]ATP (10 Ci/mmol). After incubation for 30 minutes at 30° C., phosphorylation of substrates was analyzed by polyacrylamide gel electrophoresis and autoradiography."}, "JNK1 [3]": {"target": "T1, JNK1", "assay": "GST-fusion pull-down from cell lysates, Flag immunoblot: JNK1", "format": "binding", "settings": "GST pull-down, Flag immunoblot", "protocol": "To test whether JIP-1 binding to JNK is also isoform-dependent, a binding assay was utilized. Cell lysates (1 ml in TLB) containing JNK1, JNK2, or p38 MAP kinase, each tagged with the Flag epitope, were incubated with 5 μg GST-fusion proteins pre-bound to 10 μl glutathione-Sepharose. The GST fusion proteins used contain residues 127-202 (SEQ ID NO:15), 203-281 (SEQ ID NO:16), 164-240 (SEQ ID NO:17), or 127-281 (SEQ ID NO:4) of JIP-1. The GST-ATF2 fusion protein contains residues 1-109 of ATF2, and the GST-Jun fusion protein contains residues 1-79 of c-Jun. After incubation for one hour at 4° C. and three washes with TLB, bound proteins were detected by protein immunoblot analysis with the M2 monoclonal antibody, which is specific for the Flag epitope. Dérijard, et al., supra; Sluss et al., supra; Gupta et al., supra. […] This finding is consistent with the results of previous studies. In contrast, when GST-JIP-1 fusion proteins containing residues 127-202 or 127-281 of JIP-1 were tested in the assay, these proteins bound both JNK1 and JNK2.\nThe GST-JIP-1 fusion proteins containing various portions of the JIP-1 gene were used to define regions of JIP-1 that are required for JNK interaction. A GST-JIP-1 fusion protein containing residues 127-281 of JIP-1 bound both JNK1 and JNK2.\nTo more precisely define the JIP-1 sequence required for JNK binding activity, additional […] fusion proteins were constructed. These fusion proteins contained residues 135-202 (SEQ ID NO:18), 144-202 (SEQ ID NO:19), 154-202 (SEQ ID NO:20), 164-202 (SEQ ID NO:21), 127-143 (SEQ ID NO:22), 127-153 (SEQ ID NO:23), or 127-163 (SEQ ID NO:24) of JIP-1. Proteins containing residues 127-202, 135-202, 144-202, […], and 127-163 all bound both JNK1 and JNK2. Thus, JIP-1 residues 144-163 are important for the interaction of JIP-1 with JNK."}, "ERK2 [4]": {"target": "ERK2 (Homo sapiens, UniProt P28482)", "sequence (P28482 whole entry, species assumed)": "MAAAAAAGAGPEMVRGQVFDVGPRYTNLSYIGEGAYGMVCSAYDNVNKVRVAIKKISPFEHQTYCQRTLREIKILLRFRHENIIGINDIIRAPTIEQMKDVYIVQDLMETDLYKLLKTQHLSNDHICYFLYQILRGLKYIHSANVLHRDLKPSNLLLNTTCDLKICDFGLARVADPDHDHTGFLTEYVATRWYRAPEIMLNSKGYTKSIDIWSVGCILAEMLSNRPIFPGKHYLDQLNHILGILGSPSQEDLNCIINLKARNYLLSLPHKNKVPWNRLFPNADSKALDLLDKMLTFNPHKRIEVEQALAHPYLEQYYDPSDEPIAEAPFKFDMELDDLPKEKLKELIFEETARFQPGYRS", "assay": "Co-immunoprecipitation of JIP-1 with ERK2 (specificity control)", "format": "binding", "settings": "control experiment"}, "p38": {"system": "p38", "assay": "Immune complex protein kinase assay: p38, substrate GST-ATF2", "format": "biochemical, Chinese hamster", "settings": "in vitro, 3 μg GST-ATF2", "protocol": "as §1"}, "JNK2": {"target": "T2, JNK2 (Homo sapiens, UniProt P45984)", "T2 construct": "expressed in transfected cells", "assay": "Co-immunoprecipitation of JIP-1 with JNK2", "format": "binding", "settings": "protein immunoblot"}}, "data": [{"molecule": "JIP-1: 660 amino acid murine cytoplasmic protein that specifically binds JNK (protein) MAERESGLGGGAASPPAASPFLGLHIASPPNFRLTHDISLEEFEDEDLSEITDECGISLQCKDTLSLRPPRAGLLSAGSSGSAGSRLQAEMLQMDLIDAAGDTPGAEDDEEEEDDELAAQRPGVGPPKAESNQDPAPRSQGQGPGTGSGDTYRPKRPTTLNLFPQVPRSQDTLNNNSLGKKHSWQDRVSRSSSPLKTGEQTPPHEHICLSDELPPQGSPVPTQDRGTSTDSPCRRSAATQMAPPSGPPATAPGGRGHSHRDRIHYQADVRLEATEEIYLTPVQRPPDPAEPTSTFMPPTESRMSVSSDPDPAAYSVTAGRPHPSISEEDEGFDCLSSPERAEPPGGGWRGSLGEPPPPPRASLSSDTSALSYDSVKYTLVVDEHAQLELVSLRPCFGDYSDESDSATVYDNCASASSPYESAIGEEYEEAPQPRPPTCLSEDSTPDEPDVHFSKKFLNVFMSGRSRSSSAESFGLFSCVINGEEHEQTHRAIFRFVPRHEDELELEVDDPLLVELQAEDYWYEAYNMRTGARGVFPAYYAIEVTKEPEHMAALAKNSCVLEISVRGVKIGVKADDALEAKGNKCSHFFQLKNISFCGYHPKNNKYFGFITKHPADHRFACHVFVSEDSTKALAESVGRAFQQFYKQFVEYTCPTEDIYLE", "values": [{"measurement": "co-immunoprecipitation of JIP-1 with JNK1", "setting": "JNK1 [1]; COS-1 cells transfected with Flag-JIP-1 and HA-JNK1, protein immunoblot", "result": "detected in JNK1 immunoprecipitates"}, {"measurement": "change in amount of JNK/JIP-1 complex on exposure to UV radiation", "setting": "JNK1 [1]; UV-C 40 J/m2, one hour, co-immunoprecipitation", "result": "no significant change"}, {"measurement": "phosphorylation of substrate by ERK2", "setting": "ERK2 [2]", "result": "no significant change"}, {"measurement": "binding of JNK compared with binding of JNK to ATF2 or c-Jun", "setting": "JNK1 [3]", "result": "significantly greater"}, {"measurement": "co-immunoprecipitation of JIP-1 with ERK2", "setting": "ERK2 [4]", "result": "did not co-immunoprecipitate"}, {"measurement": "phosphorylation of substrate by p38", "setting": "p38", "result": "no significant change"}, {"measurement": "co-immunoprecipitation of JIP-1 with JNK2", "setting": "JNK2", "result": "observed"}]}]}
